In assay [1] the target is full-length gB (Towne strain) expressed on HEK293T cells (UniProt P13201). The assay can be described thus: flow cytometry on cells. The conditions noted are these: three-point, 10-fold mAb serial dilution starting at 0.1 μg/mL; parent: 94.
In assay [2] the target is CMV gB ectodomain protein. The assay can be described thus: ELISA. The conditions noted are these: parent: 171.7. (In general: ELISA stands for enzyme-linked immunosorbent assay.)

As for “TRL345 unmutated common ancestor (UCA) mAb H:A33N; H:Y52aN; L:S30G”, the other: AUC in assay [1] turned out to be 144 AUC.
With “TRL345 unmutated common ancestor (UCA) mAb H:A33N; L:S30G; L:N53D”, the other: AUC in assay [1] was found to be 138 AUC.
A word on the EC50: it is the concentration at which the effect is half-maximal. For “TRL345 unmutated common ancestor (UCA) mAb L:N53D”, the EC50 in assay [2] stood at 0.0197 µg/mL. Further, the other: AUC in assay [1] stood at 90 AUC.
As for “TRL345 unmutated common ancestor (UCA) mAb H:A33N; L:N53D”, the other: AUC in assay [1] turned out to be 180 AUC.
Still for that read-out and setting: the figure for “TRL345 unmutated common ancestor (UCA) mAb L:S30G; L:N53D” is 107 AUC.
Consider “TRL345 unmutated common ancestor (UCA) mAb L:S30G”, for which the EC50 in assay [2] came to 0.0127 µg/mL.
On the same count and under the same terms, as for “TRL345 unmutated common ancestor (UCA) mAb H:Y52aN”, the figure is 0.0851 µg/mL.
As for “TRL345 unmutated common ancestor (UCA) mAb H:Y52aN; L:S30G; L:N53D”, the EC50 in assay [2] came out at 0.0077 µg/mL.
As to “TRL345 unmutated common ancestor (UCA) mAb H:A33N; H:Y52aN”, the other: AUC in assay [1] stood at 140 AUC.
Turning to “TRL345 unmutated common ancestor (UCA) mAb H:A33N; L:S30G”, in assay [1], the other: AUC was 207 AUC.
Still for that read-out and setting: as for “TRL345 unmutated common ancestor (UCA) mAb H:A33N; H:Y52aN; L:N53D”, the figure is 143 AUC.
As for “TRL345 unmutated common ancestor (UCA) mAb H:Y52aN; L:N53D”, the EC50 in assay [2] is 0.0094 µg/mL. In addition, the other: AUC in assay [1] came to 109 AUC.
For “TRL345 unmutated common ancestor (UCA) mAb H:Y52aN; L:S30G”, in assay [1], the other: AUC was 124 AUC.
